# From US20150344570A1 (published 2015)
# B1: GpH7-A5/GpH7-B3 variant S267_02A/GpL16-k0 (antibody, human IgG1, kappa)
# heavy 1: not shown
# heavy 2: not shown
# light: DIVMTQSPLSLPVTPGEPASISCQASESLVHSNRNTYLHWYLQKPGQSPQLLIYKVSNRFSGVPDRFSGSGSGTDFTLKISRVEAEDVGVYYCSQNTHVPPTFGQGTKVEIERTVAAPSVFIFPPSDEQLKSGTASVVCLLNNFYPREAKVQWKVDNALQSGNSQESVTEQDSKDSTYSLSSTLTLSKADYEKHKVYACEVTHQGLSSPVTKSFNRGEC
# notes: also called He Ab S267_02A
# B2: GpH7-A5/GpH7-B3 variant T335_08L/GpL16-k0 (antibody, human IgG1, kappa)
# heavy 1: not shown
# heavy 2: not shown
# light: B1 light
# notes: also called He Ab T335_08L
# B3: GpH7-A5/GpH7-B3 variant S298_03V/GpL16-k0 (antibody, human IgG1, kappa)
# heavy 1: not shown
# heavy 2: not shown
# light: B1 light
# notes: also called He Ab S298_03V
# B4: GpH7-A5/GpH7-B3 variant S324_12R/GpL16-k0 (antibody, human IgG1, kappa)
# heavy 1: not shown
# heavy 2: not shown
# light: B1 light
# notes: also called He Ab S324_12R
# B5: GpH7-A5/GpH7-B3 variant S337_06M/GpL16-k0 (antibody, human IgG1, kappa)
# heavy 1: not shown
# heavy 2: not shown
# light: B1 light
# notes: also called He Ab S337_06M
# B6: GpH7-A5/GpH7-B3 variant T335_10E/GpL16-k0 (antibody, human IgG1, kappa)
# heavy 1: not shown
# heavy 2: not shown
# light: B1 light
# notes: also called He Ab T335_10E
# B7: GpH7-A5/GpH7-B3 variant S337_07I/GpL16-k0 (antibody, human IgG1, kappa)
# heavy 1: not shown
# heavy 2: not shown
# light: B1 light
# notes: also called He Ab S337_07I
# B8: GpH7-A5/GpH7-B3 variant T335_07I/GpL16-k0 (antibody, human IgG1, kappa)
# heavy 1: not shown
# heavy 2: not shown
# light: B1 light
# notes: also called He Ab T335_07I
# B9: GpH7-A5/GpH7-B3 variant S337_09D/GpL16-k0 (antibody, human IgG1, kappa)
# heavy 1: not shown
# heavy 2: not shown
# light: B1 light
# notes: also called He Ab S337_09D
# B10: GpH7-A5/GpH7-B3 variant T335_15Y/GpL16-k0 (antibody, human IgG1, kappa)
# heavy 1: not shown
# heavy 2: not shown
# light: B1 light
# notes: also called He Ab T335_15Y
# B11: GpH7-A5/GpH7-B3 variant S298_08L/GpL16-k0 (antibody, human IgG1, kappa)
# heavy 1: not shown
# heavy 2: not shown
# light: B1 light
# notes: also called He Ab S298_08L
# B12: GpH7-A5/GpH7-B3 variant S337_10E/GpL16-k0 (antibody, human IgG1, kappa)
# heavy 1: not shown
# heavy 2: not shown
# light: B1 light
# notes: also called He Ab S337_10E
# B13: GpH7-A5/GpH7-B3 variant S324_19Q/GpL16-k0 (antibody, human IgG1, kappa)
# heavy 1: not shown
# heavy 2: not shown
# light: B1 light
# notes: also called He Ab S324_19Q
# B14: GpH7-A5/GpH7-B3 variant S267_03V/GpL16-k0 (antibody, human IgG1, kappa)
# heavy 1: not shown
# heavy 2: not shown
# light: B1 light
# notes: also called He Ab S267_03V
# B15: GpH7-A5/GpH7-B3 variant S267_16H/GpL16-k0 (antibody, human IgG1, kappa)
# heavy 1: not shown
# heavy 2: not shown
# light: B1 light
# notes: also called He Ab S267_16H
# B16: GpH7-A5/GpH7-B3 variant S298_16H/GpL16-k0 (antibody, human IgG1, kappa)
# heavy 1: not shown
# heavy 2: not shown
# light: B1 light
# notes: also called He Ab S298_16H
# B17: GpH7-A5/GpH7-B3 variant T335_09D/GpL16-k0 (antibody, human IgG1, kappa)
# heavy 1: not shown
# heavy 2: not shown
# light: B1 light
# notes: also called He Ab T335_09D
# B18: GpH7-A5/GpH7-B3 variant S298_15Y/GpL16-k0 (antibody, human IgG1, kappa)
# heavy 1: not shown
# heavy 2: not shown
# light: B1 light
# notes: also called He Ab S298_15Y
# B19: GpH7-A5/GpH7-B3 variant S324_02A/GpL16-k0 (antibody, human IgG1, kappa)
# heavy 1: not shown
# heavy 2: not shown
# light: B1 light
# notes: also called He Ab S324_02A
# B20: GpH7-A5/GpH7-B3 variant Y300_12R/GpL16-k0 (antibody, human IgG1, kappa)
# heavy 1: not shown
# heavy 2: not shown
# light: B1 light
# notes: also called He Ab Y300_12R
# B21: GpH7-A5/GpH7-B3 variant S337_02A/GpL16-k0 (antibody, human IgG1, kappa)
# heavy 1: not shown
# heavy 2: not shown
# light: B1 light
# notes: also called He Ab S337_02A
# B22: GpH7-A5/GpH7-B3 variant T335_06M/GpL16-k0 (antibody, human IgG1, kappa)
# heavy 1: not shown
# heavy 2: not shown
# light: B1 light
# notes: also called He Ab T335_06M
# B23: GpH7-A5/GpH7-B3 variant S337_08L/GpL16-k0 (antibody, human IgG1, kappa)
# heavy 1: not shown
# heavy 2: not shown
# light: B1 light
# notes: also called He Ab S337_08L
# B24: GpH7-A5/GpH7-B3 variant S298_01G/GpL16-k0 (antibody, human IgG1, kappa)
# heavy 1: not shown
# heavy 2: not shown
# light: B1 light
# notes: also called He Ab S298_01G
# B25: GpH7-A5/GpH7-B3 variant S324_15Y/GpL16-k0 (antibody, human IgG1, kappa)
# heavy 1: not shown
# heavy 2: not shown
# light: B1 light
# notes: also called He Ab S324_15Y
# B26: GpH7-A5/GpH7-B3 variant S337_04F/GpL16-k0 (antibody, human IgG1, kappa)
# heavy 1: not shown
# heavy 2: not shown
# light: B1 light
# notes: also called He Ab S337_04F
# B27: GpH7-A5/GpH7-B3 variant S298_06M/GpL16-k0 (antibody, human IgG1, kappa)
# heavy 1: not shown
# heavy 2: not shown
# light: B1 light
# notes: also called He Ab S298_06M
# B28: GpH7-A5/GpH7-B3 variant S298_19Q/GpL16-k0 (antibody, human IgG1, kappa)
# heavy 1: not shown
# heavy 2: not shown
# light: B1 light
# notes: also called He Ab S298_19Q
# Target: T1, FcγRIa (human, UniProt P12314 16-292)
# T1 construct: extracellular domain; Soluble extracellular domain expressed in FreeStyle293 cells, used as analyte in Biacore; also called FcgRI; 1a; not shown: His tag attached to the C terminus
# Assay: SPR (Biacore); He Ab vs HeCon Ab GpH7-A5/GpH7-B3/GpL16-k0
# Experimental: Analysis of interaction between objective antibody and the FcγR was carried out using Biacore T100 (GE Healthcare). HBS-EP+ (GE Healthcare) was used as the running buffer, and the measurement temperature was set to 25° C. Chips produced by immobilizing the antigen peptide by the amine coupling method to a Series S Sencor Chip CM5 (GE Healthcare), or alternatively, chips produced by allowing preliminarily biotinylated antigen peptides to interact with and immobilize onto a Series S Sensor Chip SA (certified) (GE Healthcare) were used. Antibodies of interest were captured onto an antigen peptide-immobilized chip, and allowed to interact to each FcγR diluted with running buffer. To regenerate and repeatedly use the chip, the antibodies captured on the chip were washed off by reacting 10 mM glycine-HCl, pH 1.5.
# T1 sequence (P12314 16-292): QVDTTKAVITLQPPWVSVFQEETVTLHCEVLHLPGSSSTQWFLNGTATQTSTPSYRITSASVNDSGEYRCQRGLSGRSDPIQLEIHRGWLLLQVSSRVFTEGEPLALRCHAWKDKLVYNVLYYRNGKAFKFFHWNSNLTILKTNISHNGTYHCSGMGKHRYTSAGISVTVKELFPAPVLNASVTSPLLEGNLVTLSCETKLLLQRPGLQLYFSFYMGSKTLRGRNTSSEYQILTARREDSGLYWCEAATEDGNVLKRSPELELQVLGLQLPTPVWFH
row,He/Con_1a,Binder
1,"109 relative binding, control = 100",B1
2,"115 relative binding, control = 100",B2
3,"110 relative binding, control = 100",B3
4,"102 relative binding, control = 100",B4
5,"107 relative binding, control = 100",B5
6,"109 relative binding, control = 100",B6
7,"105 relative binding, control = 100",B7
8,"109 relative binding, control = 100",B8
9,"106 relative binding, control = 100",B9
10,"107 relative binding, control = 100",B10
11,"107 relative binding, control = 100",B11
12,"106 relative binding, control = 100",B12
13,"112 relative binding, control = 100",B13
14,"106 relative binding, control = 100",B14
15,"100 relative binding, control = 100",B15
16,"109 relative binding, control = 100",B16
17,"108 relative binding, control = 100",B17
18,"107 relative binding, control = 100",B18
19,"103 relative binding, control = 100",B19
20,"105 relative binding, control = 100",B20
21,"106 relative binding, control = 100",B21
22,"107 relative binding, control = 100",B22
23,"105 relative binding, control = 100",B23
24,"104 relative binding, control = 100",B24
25,"114 relative binding, control = 100",B25
26,"106 relative binding, control = 100",B26
27,"114 relative binding, control = 100",B27
28,"109 relative binding, control = 100",B28
